Test results reported in patent US20230390418A1, “[…] XII ANTIBODIES AND ADMINISTRATION THEREOF” (REGENXBIO INC., priority 2020, published 2023).

Columns and labels:
[1] = tested on: carrageenan-induced paw edema; test: Carrageenan paw edema model in mice (paw volume, plethysmometer); format: in vivo; details: C57BL/6 mice, vectors 21 days, Diclofenac 30 minutes prior to carrageenan
Excerpt: Inflammation models induced by carrageenan are frequently used acute inflammation models. Carrageenan (Cg) is a strong chemical agent that functions in stimulating the release of inflammatory and proinflammatory mediators, including bradykinin, histamine, tachykinins, reactive oxygen, and nitrogen species. Typical signs of inflammation include edema, hyperalgesia, and erythema, which develop immediately following the treatment of carrageenan. This example evaluated the effect of AAV-mediated gene delivery of Lanadelumab on carrageenan-induced paw edema in mice.
In total eighty young adult (8-9 weeks old) male C57BL/6 mice were used for this study. Paw edema was induced by a single subcutaneous (s.c.) injection of 30 μL of 0.7% or 1% carrageenan solution. Test vectors and positive control Diclofenac were administered at 21 days and 30 minutes prior to carrageenan treatment. Blood was collected before vectors injection and at 7 and 21 days post injection from mice in groups 1, 3, 4, 5, 7 and 8. Paw volume was measured using a digital Plethysmometer prior to carrageenan injection, and at 2, 4, 6, 8, 24 and 48 hours after injection. All animals were sacrificed 48 hours after carrageenan injection. Liver and paw specimens were also collected at the necropsy.

[2] = molecular target: activated human plasma kallikrein (Enzyme Research Laboratories) (human) (UniProt P03952); test: cell-based or functional assay
[3] = molecular target: T1, activated human plasma kallikrein (Homo sapiens, UniProt P03952); test: In vitro pKal functional assay (fluorogenic PFR-AMC substrate); format: biochemical
T1 construct: purchased Enzyme Research Laboratories
Procedure: In order to measure pKal function of lanadelumab derived from mouse serum following AAV-lanadelumab administration, a fluorescence-based kinetic enzymatic functional assay was performed. First, activated human plasma kallikrein (Enzyme Research Laboratories) was diluted in sample dilution buffer (SDB; 1×PBS, 3% BSA, 0.1% Tween-20) to top concentration of 100 nM. This pKal was two-fold serially diluted for a total of 12 concentrations in the dilution series (100 nM-0.05 nM). From each dilution, and in duplicate, […], was placed in one well of a 96-well, opaque flat-bottomed plate along with […], of SDB. […] The samples were immediately run in kinetic mode for AMC fluorescence at excitation/emission wavelengths of 380/460 nm, respectively, for 3 hours using a SpectraMax 3 fluorescent plate reader.
The signal-to-noise ratio for each pKal concentration RFU (last RFU fluorescent value chosen) was calculated by dividing its RFU by background PFR-AMC substrate fluorescence. […] Antibody-pKal mixture was then given PFR-AMC and immediately run in kinetic mode for AMC fluorescence at excitation/emission wavelengths of 380/460 nm, respectively, for 3 hours using a SpectraMax fluorescent plate reader.
In vitro pKal functional assay. […] Total antibody concentration was measured using a Nanodrop spectrophotometer, with OD absorbance=280 nm. […]

T1 sequence (P03952 391-638 limits assumed): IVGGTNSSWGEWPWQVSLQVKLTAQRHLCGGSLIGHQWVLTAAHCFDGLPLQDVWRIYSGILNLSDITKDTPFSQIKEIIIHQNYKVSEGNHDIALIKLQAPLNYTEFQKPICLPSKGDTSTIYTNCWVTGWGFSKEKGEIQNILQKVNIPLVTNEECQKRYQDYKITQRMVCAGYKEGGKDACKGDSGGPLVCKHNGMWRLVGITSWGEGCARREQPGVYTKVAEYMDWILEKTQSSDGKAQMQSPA
T1 sequence (P03952 20-390 limits assumed): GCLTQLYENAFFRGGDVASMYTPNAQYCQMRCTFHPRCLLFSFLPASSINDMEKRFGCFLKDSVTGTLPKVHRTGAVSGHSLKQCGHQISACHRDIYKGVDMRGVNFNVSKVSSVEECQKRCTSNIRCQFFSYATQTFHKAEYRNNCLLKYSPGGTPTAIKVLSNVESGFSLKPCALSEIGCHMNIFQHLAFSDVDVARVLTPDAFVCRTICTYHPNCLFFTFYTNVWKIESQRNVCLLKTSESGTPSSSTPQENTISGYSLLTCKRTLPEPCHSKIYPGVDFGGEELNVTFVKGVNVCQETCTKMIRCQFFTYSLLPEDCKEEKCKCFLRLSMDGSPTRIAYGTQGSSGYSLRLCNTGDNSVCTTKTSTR

O=C(O)Cc1ccccc1Nc1c(Cl)cccc1Cl [diclofenac, Diclofenac]
Paw volume versus vehicle control ([1]; 0.7% carrageenan model): a significant decrease on paw volume was observed only at 4 and 24 hours post injection | Paw volume versus vehicle control ([1]; 1.0% carrageenan model): significantly decreased the paw volume at 2, 4, 6, 8 and 24 hours post carrageenan injection

Lanadelumab (GenScript) (antibody)
suppression of pKal activity (PFR-AMC fluorogenic substrate, kinetic AMC fluorescence) [2]: 0.1 nM

Vectorized lanadelumab derived from mouse serum following AAV-lanadelumab administration (antibody)
percent reduction in pKal activity (serum diluted 1:25, day 49 post-administration against day -7; PFR-AMC assay) [2]: 50%

B1: lanadelumab: human anti-pKal (anti-kallikrein) IgG antibody; purified (GenScript) or produced in serum via AAV-mediated gene delivery (antibody)
heavy: EVQLLESGGGLVQPGGSLRLSCAASGFTFSHYIMMWVRQAPGKGLEWVSGIYSSGGITVYADSVKGRFTISRDNSKNTLYLQMNSLRAEDTAVYYCAYRRIGVPRRDEFDIWGQGTMVTVSSASTKGPSVFPLAPSSKSTSGGTAALGCLVKDYFPEPVTVSWNSGALTSGVHTFPAVLQSSGLYSLSSVVTVPSSSLGTQTYICNVNHKPSNTKVDKRVEPKSCDKTHTCPPCPAPELLGGPSVFL
light: DIQMTQSPSTLSASVGDRVTITCRASQSISSWLAWYQQKPGKAPKLLIYKASTLESGVPSRFSGSGSGTEFTLTISSLQPDDFATYYCQQYNTYWTFGQGTKVEIKRTVAAPSVFIFPPSDEQLKSGTASVVCLLNNFYPREAKVQWKVDNALQSGNSQESVTEQDSKDSTYSLSSTLTLSKADYEKHKVYACEVTHQGLSSPVTKSFNRGEC
modifications: Lanadelumab Heavy; misc (227)..(230) amino acids 227 to 230 are present or absent; misc (231)..(236) amino acids 231 to 236 are present or absent; misc (237)..(247) amino acids 237 to 247 are present or absent; Lanadelumab Light
notes: human anti-pKal (anti-kallikrein) IgG antibody; purified (GenScript) or produced in serum via AAV-mediated gene delivery
Paw volume versus vehicle control ([1]; 1.0% carrageenan model): significantly reduces the severity of inflammation | Suppression of human pKal function by purified total IgG from mouse serum ([3]; IgG purified from day 49 post-administration serum versus day −7): suppressed human pKal function | Lowest in-well concentration with noticeable suppression of pKal activity ([3]; purified antibody, defined enzyme concentration): 0.1 nM
